In US20240092930A1 (MABWELL SHANGHAI BIOSCIENCE, published 2024):

Biological target: T1, recombinant human Trop-2-his protein (ACCESSION NO.: NP_002344.2, AA 1-274) (human, UniProt P09758 27-274)
T1 construct: range 27-274; also called recombinant human Trop-2 protein; recombinant human Trop-2 extracellular domain; not shown: his tag
T1 sequence (looked up): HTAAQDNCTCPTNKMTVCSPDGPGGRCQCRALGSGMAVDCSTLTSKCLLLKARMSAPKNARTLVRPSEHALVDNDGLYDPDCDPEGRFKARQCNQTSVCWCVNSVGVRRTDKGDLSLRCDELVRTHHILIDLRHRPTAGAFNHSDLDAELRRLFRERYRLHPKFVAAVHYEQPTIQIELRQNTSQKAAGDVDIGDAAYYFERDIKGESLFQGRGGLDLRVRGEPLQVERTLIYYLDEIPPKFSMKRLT
Assay: BLI, antibody on AHC sensor, Trop-2-his 60 nM
Method: 5-6 days after cell transfection, culture supernatants were purified through ProA affinity chromatography column to obtain different humanized antibodies. Affinities of the obtained antibodies were determined by an assay including capturing Fc fragments of the antibodies with anti-human IgG Fc capture (AHC) biosensors using Octet QKe system instrument from Fortebio. For the assay, each of the humanized antibodies and control antibody Sacituzumab was diluted to 4 μg/ml in PBS, and was allowed to flow through the surface of an AHC biosensor (Cat.: 18-0015, PALL) for 120 s. Recombinant human Trop-2-his protein (ACCESSION NO.: NP_002344.2, AA 1-274) was used as a mobile phase, and its concentration was 60 nM. The binding time was 100 s and the dissociation time was 300 s. When the assay was finished, data from which the response values of blank control had been deducted were fitted to a 1:1 Langmuir binding model using software, and then kinetic constants for antigen-antibody binding were calculated.
Affinities of the antibodies obtained from the combinations of mutants of murine antibody 23-12, chimeric antibody ch23-12 and control antibody Sacituzumab to recombinant human Trop-2-his protein were determined by ForteBijo (Table 5).

Row | Binder | Kd
1 | h23-12-20 (antibody, human IgG1, kappa, V domains shown) VH: QVQLVQSGAEVKKPGASVKVSCKASGYTFTSYWMHWVRQAPGQGLEWMGEITPSDNYTSYNQKFKGRVTITRDTSTSTAYMELSSLRSEDTAVYYCARGEGNYVSFDYWGQGTLVTVSS VL: DIQMTQSPSSLSASVGDRVTITCRASQDISNYLNWYQQKPGKAPKLLIYYTSSLHSGVPSRFSGSGSGTDFTLTISSLQPEDFATYFCQQGYTLPPYTFGQGTKLEIKR | 1.46 nM
2 | h23-12-29 (antibody, human IgG1, kappa, V domains shown) VH: QVQLVQSGAEVKKPGASVKVSCKASGYTFTSYWMHWVRQAPGQGLEWMGEITPSDNYTSYNQKFKGRVTITRDTSTSTAYMELSSLRSEDTAVYYCARGHGNYVSFDYWGQGTLVTVSS VL: DIQMTQSPSSLSASVGDRVTITCRASQDISNYLNWYQQKPGKAPKLLIYYTSRLQSGVPSRFSGSGSGTDFTLTISSLQPEDFATYFCQQGYTLPPYTFGQGTKLEIKR | 6.72 nM
3 | h23-12-28 (antibody, human IgG1, kappa, V domains shown) VH: QVQLVQSGAEVKKPGASVKVSCKASGYTFTSYWMHWVRQAPGQGLEWMGEITPSDNYTSYNQKFKGRVTITRDTSTSTAYMELSSLRSEDTAVYYCARGQGNYVSFDYWGQGTLVTVSS VL: DIQMTQSPSSLSASVGDRVTITCRASQDISNYLNWYQQKPGKAPKLLIYYTSRLESGVPSRFSGSGSGTDFTLTISSLQPEDFATYFCQQGYTLPPYTFGQGTKLEIKR | 4.13 nM
4 | h23-12-32 (antibody, human IgG1, kappa, V domains shown) VH: QVQLVQSGAEVKKPGASVKVSCKASGYTFTSYWMHWVRQAPGQGLEWMGEITPSDNYGSYNQKFKGRVTITRDTSTSTAYMELSSLRSEDTAVYYCARGHGNYVSFDYWGQGTLVTVSS VL: DIQMTQSPSSLSASVGDRVTITCRASQDISNYLNWYQQKPGKAPKLLIYYTSRLQSGVPSRFSGSGSGTDFTLTISSLQPEDFATYFCQQGYTLPPYTFGQGTKLEIKR | 0.601 nM
5 | h23-12-27 (antibody, human IgG1, kappa, V domains shown) VH: QVQLVQSGAEVKKPGASVKVSCKASGYTFTSYWMHWVRQAPGQGLEWMGEITPSDNYTSYNQKFKGRVTITRDTSTSTAYMELSSLRSEDTAVYYCARGEGNYVSFDYWGQGTLVTVSS VL: DIQMTQSPSSLSASVGDRVTITCRASQDISNYLNWYQQKPGKAPKLLIYYTSRLESGVPSRFSGSGSGTDFTLTISSLQPEDFATYFCQQGYTLPPYTFGQGTKLEIKR | 0.496 nM
6 | h23-12-37 (antibody, human IgG1, kappa, V domains shown) VH: QVQLVQSGAEVKKPGASVKVSCKASGYTFTSYWMHWVRQAPGQGLEWMGEITPGDNYTSYNQKFKGRVTITRDTSTSTAYMELSSLRSEDTAVYYCARGHGNYVSFDYWGQGTLVTVSS VL: DIQMTQSPSSLSASVGDRVTITCRASQDISNYLNWYQQKPGKAPKLLIYYTSRLHSGVPSRFSGSGSGTDFTLTISSLQPEDFATYFCQQYYTLPPYTFGQGTKLEIKR | 0.893 nM
7 | h23-12-33 (antibody, human IgG1, kappa, V domains shown) VH: QVQLVQSGAEVKKPGASVKVSCKASGYTFTSYWMHWVRQAPGQGLEWMGEITPSDNYTSYAQKFKGRVTITRDTSTSTAYMELSSLRSEDTAVYYCARGHGNYVSFDYWGQGTLVTVSS VL: DIQMTQSPSSLSASVGDRVTITCRASQDISNYLNWYQQKPGKAPKLLIYYTSRLQSGVPSRFSGSGSGTDFTLTISSLQPEDFATYFCQQGYTLPPYTFGQGTKLEIKR | 8.91 nM
8 | h23-12-31 (antibody, human IgG1, kappa, V domains shown) VH: QVQLVQSGAEVKKPGASVKVSCKASGYTFTSYWMHWVRQAPGQGLEWMGEITPSDGYTSYNQKFKGRVTITRDTSTSTAYMELSSLRSEDTAVYYCARGHGNYVSFDYWGQGTLVTVSS VL: DIQMTQSPSSLSASVGDRVTITCRASQDISNYLNWYQQKPGKAPKLLIYYTSRLQSGVPSRFSGSGSGTDFTLTISSLQPEDFATYFCQQGYTLPPYTFGQGTKLEIKR | 63.9 nM
9 | h23-12-23 (antibody, human IgG1, kappa, V domains shown) VH: QVQLVQSGAEVKKPGASVKVSCKASGYTFTSYWMHWVRQAPGQGLEWMGEITPGDNYTSYNQKFKGRVTITRDTSTSTAYMELSSLRSEDTAVYYCARGHGNYVSFDYWGQGTLVTVSS VL: DIQMTQSPSSLSASVGDRVTITCRASQDISNYLNWYQQKPGKAPKLLIYYTSRLESGVPSRFSGSGSGTDFTLTISSLQPEDFATYFCQQGYTLPPYTFGQGTKLEIKR | 0.77 nM
10 | h23-12-39 (antibody, human IgG1, kappa, V domains shown) VH: QVQLVQSGAEVKKPGASVKVSCKASGYTFTSYWMHWVRQAPGQGLEWMGEITPSDNYGSYNQKFKGRVTITRDTSTSTAYMELSSLRSEDTAVYYCARGHGNYVSFDYWGQGTLVTVSS VL: DIQMTQSPSSLSASVGDRVTITCRASQDISNYLNWYQQKPGKAPKLLIYYTSRLHSGVPSRFSGSGSGTDFTLTISSLQPEDFATYFCQQYYTLPPYTFGQGTKLEIKR | 0.492 nM
11 | h23-12-30 (antibody, human IgG1, kappa, V domains shown) VH: QVQLVQSGAEVKKPGASVKVSCKASGYTFTSYWMHWVRQAPGQGLEWMGEITPGDNYTSYNQKFKGRVTITRDTSTSTAYMELSSLRSEDTAVYYCARGHGNYVSFDYWGQGTLVTVSS VL: DIQMTQSPSSLSASVGDRVTITCRASQDISNYLNWYQQKPGKAPKLLIYYTSRLQSGVPSRFSGSGSGTDFTLTISSLQPEDFATYFCQQGYTLPPYTFGQGTKLEIKR | 9.76 nM
12 | h23-12-38 (antibody, human IgG1, kappa, V domains shown) VH: QVQLVQSGAEVKKPGASVKVSCKASGYTFTSYWMHWVRQAPGQGLEWMGEITPSDGYTSYNQKFKGRVTITRDTSTSTAYMELSSLRSEDTAVYYCARGHGNYVSFDYWGQGTLVTVSS VL: DIQMTQSPSSLSASVGDRVTITCRASQDISNYLNWYQQKPGKAPKLLIYYTSRLHSGVPSRFSGSGSGTDFTLTISSLQPEDFATYFCQQYYTLPPYTFGQGTKLEIKR | 7.86 nM
13 | h23-12-35 (antibody, human IgG1, kappa, V domains shown) VH: QVQLVQSGAEVKKPGASVKVSCKASGYTFTSYWMHWVRQAPGQGLEWMGEITPSDNYTSYNQKFKGRVTITRDTSTSTAYMELSSLRSEDTAVYYCARGQGNYVSFDYWGQGTLVTVSS VL: DIQMTQSPSSLSASVGDRVTITCRASQDISNYLNWYQQKPGKAPKLLIYYTSRLQSGVPSRFSGSGSGTDFTLTISSLQPEDFATYFCQQGYTLPPYTFGQGTKLEIKR | 9.77 nM
14 | h23-12-22 (antibody, human IgG1, kappa, V domains shown) VH: QVQLVQSGAEVKKPGASVKVSCKASGYTFTSYWMHWVRQAPGQGLEWMGEITPSDNYTSYNQKFKGRVTITRDTSTSTAYMELSSLRSEDTAVYYCARGHGNYVSFDYWGQGTLVTVSS VL: DIQMTQSPSSLSASVGDRVTITCRASQDISNYLNWYQQKPGKAPKLLIYYTSRLESGVPSRFSGSGSGTDFTLTISSLQPEDFATYFCQQGYTLPPYTFGQGTKLEIKR | 1.3 nM
15 | h23-12-21 (antibody, human IgG1, kappa, V domains shown) VH: QVQLVQSGAEVKKPGASVKVSCKASGYTFTSYWMHWVRQAPGQGLEWMGEITPSDNYTSYNQKFKGRVTITRDTSTSTAYMELSSLRSEDTAVYYCARGQGNYVSFDYWGQGTLVTVSS VL: DIQMTQSPSSLSASVGDRVTITCRASQDISNYLNWYQQKPGKAPKLLIYYTSSLHSGVPSRFSGSGSGTDFTLTISSLQPEDFATYFCQQGYTLPPYTFGQGTKLEIKR | 22.8 nM
16 | h23-12-34 (antibody, human IgG1, kappa, V domains shown) VH: QVQLVQSGAEVKKPGASVKVSCKASGYTFTSYWMHWVRQAPGQGLEWMGEITPSDNYTSYNQKFKGRVTITRDTSTSTAYMELSSLRSEDTAVYYCARGEGNYVSFDYWGQGTLVTVSS VL: DIQMTQSPSSLSASVGDRVTITCRASQDISNYLNWYQQKPGKAPKLLIYYTSRLQSGVPSRFSGSGSGTDFTLTISSLQPEDFATYFCQQGYTLPPYTFGQGTKLEIKR | 5.57 nM
17 | h23-12-24 (antibody, human IgG1, kappa, V domains shown) VH: QVQLVQSGAEVKKPGASVKVSCKASGYTFTSYWMHWVRQAPGQGLEWMGEITPSDGYTSYNQKFKGRVTITRDTSTSTAYMELSSLRSEDTAVYYCARGHGNYVSFDYWGQGTLVTVSS VL: DIQMTQSPSSLSASVGDRVTITCRASQDISNYLNWYQQKPGKAPKLLIYYTSRLESGVPSRFSGSGSGTDFTLTISSLQPEDFATYFCQQGYTLPPYTFGQGTKLEIKR | 5.21 nM
18 | h23-12-36 (antibody, human IgG1, kappa, V domains shown) VH: QVQLVQSGAEVKKPGASVKVSCKASGYTFTSYWMHWVRQAPGQGLEWMGEITPSDNYTSYNQKFKGRVTITRDTSTSTAYMELSSLRSEDTAVYYCARGHGNYVSFDYWGQGTLVTVSS VL: DIQMTQSPSSLSASVGDRVTITCRASQDISNYLNWYQQKPGKAPKLLIYYTSRLHSGVPSRFSGSGSGTDFTLTISSLQPEDFATYFCQQYYTLPPYTFGQGTKLEIKR | 8.81 nM
19 | h23-12-26 (antibody, human IgG1, kappa, V domains shown) VH: QVQLVQSGAEVKKPGASVKVSCKASGYTFTSYWMHWVRQAPGQGLEWMGEITPSDNYTSYAQKFKGRVTITRDTSTSTAYMELSSLRSEDTAVYYCARGHGNYVSFDYWGQGTLVTVSS VL: DIQMTQSPSSLSASVGDRVTITCRASQDISNYLNWYQQKPGKAPKLLIYYTSRLESGVPSRFSGSGSGTDFTLTISSLQPEDFATYFCQQGYTLPPYTFGQGTKLEIKR | 5.43 nM
